Paper PMC9898758, “Analysis of a degron-containing reporter protein GFP-CL1 reveals a role for SUMO1 in cytosolic protein quality control” (The Journal of Biological Chemistry, 2022)

Target: T1, MBP-Slx5 (UniProt P32828 1-619)
T1 construct: Plasmid was a gift from Dr Oliver Kerscher; also called MBP-tagged SLX5; source: E. coli Rosetta, purified (amylose resin)
T1 sequence (looked up): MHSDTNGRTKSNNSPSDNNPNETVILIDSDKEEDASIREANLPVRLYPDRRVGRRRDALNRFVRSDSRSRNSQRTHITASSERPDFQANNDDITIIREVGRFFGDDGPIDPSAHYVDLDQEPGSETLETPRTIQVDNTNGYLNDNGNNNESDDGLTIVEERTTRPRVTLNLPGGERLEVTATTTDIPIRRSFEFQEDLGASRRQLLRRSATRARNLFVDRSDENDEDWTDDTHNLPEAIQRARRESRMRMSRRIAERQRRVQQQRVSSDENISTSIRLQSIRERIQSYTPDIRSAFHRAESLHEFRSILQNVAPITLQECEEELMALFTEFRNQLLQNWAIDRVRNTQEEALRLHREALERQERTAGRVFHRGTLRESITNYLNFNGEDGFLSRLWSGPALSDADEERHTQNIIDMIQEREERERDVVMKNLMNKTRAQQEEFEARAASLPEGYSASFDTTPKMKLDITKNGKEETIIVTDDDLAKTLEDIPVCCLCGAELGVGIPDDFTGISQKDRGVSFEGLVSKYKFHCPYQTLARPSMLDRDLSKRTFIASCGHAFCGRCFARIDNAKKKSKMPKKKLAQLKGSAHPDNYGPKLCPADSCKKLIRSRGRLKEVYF
Assay: pull-down; MBP-Slx5 or MBP alone immobilised on amylose beads, incubated with purified GST, GST-Smt3 or GST-Smt3-K38/40A; washes, SDS-PAGE, immunoblot with anti-MBP and anti-GST
Settings: both partners purified

B1: GST-tagged Smt3-K38/40A mutant (natural protein, S. cerevisiae)
chain: EVKPEVKPETHINLKVSDGSSEIFFAIAKTTPLRRLMEAFAKRQGKEMDSLRFLYDGIRIQADQTPEDLDMEDNDIIEAHREQIGG
notes: Smt3 of S. cerevisiae with K38A and K40A; SMT3^K38/40A cloned into pGEX-6p-1; also called GST-SMT3^K38/40A; GST-Smt3-K30/40A; source: E. coli Rosetta, purified (Glutathione Sepharose 4B)
Q: B1 was tested. Which “fold reduction in binding against WT Smt3” value did it give?
A: > 5 fold
